The values below come from patent US20110288011A1, “PEPTIDE THERAPEUTIC CONJUGATES AND USES THEREOF” (priority 2008, published 2011).

This experiment has as its system ob/ob mice. Description: Body weight of ob/ob mice treated with recombinant leptin. Type of experiment: in vivo. As to conditions: 0.1 mg/mouse or 0.25 mg/mouse daily. The protocol: As a control, we tested the ability of recombinant leptin to reduce body weight in ob/ob mice using either 0.1 mg/mouse or 0.25 mg/mouse daily.

B1: recombinant leptin: recombinant leptin used as a control in ob/ob mice (protein, UniProt P41160 22-167, looked up)
Leptin: VPIQKVQDDTKTLIKTIVTRINDISHTQSVSAKQRVTGLDFIPGLHPILSLSKMDQTLAVYQQVLTSLPSQNVLQIANDLENLRDLLHLLAFSKSCSLPQTSGLQKPESLDGVLEASLYSTEVVALSRLQGSLQDILQQLDVSPEC
With B1, the body weight result is listed as “reduce body weight in these mice in a dose-dependent manner”.
